Test results reported in the DeepSol protein solubility set.

Assay: soluble on expression in E. coli; label from the status in PepcDB or PDB records

Soluble on expression in E. coli, not soluble:
MGSDKIHHHHHHMYNLGKGVQECTETSLLTALGGMERRNLSELDTTLTSDNLPVVSHDFNTWRISTLPDRLIRELHSADVKNIPVIIREVSNGEITESYTVTNDIIPFLEPLLDKVFDVNPGATFFLDGRDFEAHIITAWLSRRPKYRQRVVLLFYTFEYSSGEAFFDAVKQVSPEPDWRETVALMPVIFPQELPRLAKLIDLSDIAVEDLYEGGKIWIDSMLRQPMRVVAVHIVMARVKPEQLGLCDKPEIVRAFNADYAAVRLAYYVKDNPEVRKMRPHLKLATATRCYDFSAQLENGEKAEFSINIRTGRPMPRETDERKYIRRGYGIPGNAAAIADWVISDRSEDEMSFWEWRNKGVPRRVDHHCPHLDVIEQDGKSVP, MGSDKIHHHHHHMYRSRNRPKRGGENEVKGPNSALTQFLREEGISAENIKQKWYQRQSKKQEDATDEKKGKAEDDSFTAEISRVVEDEEIDEIGTGSGTETERAQVSYDARMKLVPADSDEEEYETSHISDTPVSLSSANDRESLTKKRQNTAKIIQNRRRKRKRAADLLDRRVNKVSSLQSLCITKISENISKWQKEADESSKLVFNKLRDVLGGVSTANLNNLAKALSKNRALNDHTLQLFLKTDLKRLTFSDCSKISFDGYKTLAIFSPHLTELSLQMCGQLNHESLLYIAEKLPNLKSLNLDGPFLINEDTWEKFFVIMKGRLEEFHISNTHRFTDKSLSNLLINCGSTLVSLGLSRLDSISNYALLPQYLVNDEFHSLCIEYPFNEEDVNDEIIINLLGQIGRTLRKLVLNGCIDLTDSMIINGLTAFIPEKCPLEVLSLEESDQITTDSLSYFFSKVELNNLIECSFRRCLQLGDMAIIELLLNGARDSLRSLNLNSLKELTKEAFVALACPNLTYLDLGFVRCVDDSVIQMLGEQNPNLTVIDVFGDNLVTEKATMRPGLTLIGRQSDSI, MGSDKIHHHHHHMYRTAIEELHRWKAKRNKKPLIIRGARQVGKTWLMKEFGRVAFAKTVYISLDNNRRMKELFSADLDVERIVTGLELYSGQKIDPANTLLIFDEVQEVPTALTSLKYFNENAPQYQIISAGSLLGVALHQGTSFPVGKVEFLDLYPLSFTEFLNAMDKGRYVELLQKGDFDMIATFKQTYVDMLKYYYYVGGMPEVVQSFSETKDFGEVREIQQRILDAYEQDFSKHAPHDVVPRIRMLWNSIPAQLTKENKKFIYGLIKEGARAKEYEQSMLWLTDCGLVHKVHRVNAPSLPLKAYEDLKAFKLFLVDIGLLSCMVRLNQGTLLDGNELFKEFKGALTEQYVLQQLRTLKELEAYYWTNDRGSAEIDFVVDDGHKVIPIEVKAETNLKAKSLKMYQEKFRPELSIRASMADYRRENRLLNLPLYMVEMMGLLLKEAE, MGSDKIHHHHHHMYTLNILKDSTAVMYEKMTFPAFQYVLQEINSKESLIAIAASYQEEPVGLVLAEIRTYNQSAEVLSLFVEPSHRCAGIGTNLLNRLETELTYRRCKKVELVYMTGKSTTPALENLLHKCGWTSPQPRMLVCKGEMEKGIQAPWLKQYSQLPAAYTIFPWREITTQERQAIERQQATQPWIPEDLIPFKYDKQIEPLNSLGLRYQGQVVGWLISHRIFPDTIRYTCAFCRPDIQKKGRMITLFYEAAKLQLNAKIPHFIWTTPMNHQSMVAFVKYRCLPYLTSIQETRIISKLLLG, MGSDKIHHHHHHMYVLHICHSYYPPFLDCARQYAALFKDSPYKVVTVYLTGKPDPEVERGSASDEVVFLGYSSKQVKGLKLGAIAKIRQLVKSRNFAFCIAHRAKPTYVALLATGLPVVSVHHNYNDYGRFTRRILVNFYRKRILMLCVSNSVRDEMRQHLKHWPAEQIQTLYNRIDVDAVRQSLLPRQEARRLLELEDDTYVIANVGRLHRDKDQATLLRGFAQALPELPANTLLLILGKGPLEQELKALASELGIAGNVRFAGQVPEARRYFRAFDLFVLTSDHEPFGMVLLEAMAAELPIICSDSGGGAEVVNGYGDLFSLGNPHHLSSLLIARSRLPQAANSSADILHEKFSDAAARKHFFMLTFIKDLLFI, MGSDKIHHHHHHMYYLSFSISSNCGLSAAAEHLQNKIVTLNVINSTDFNTVIAFTLARDIDAMRNDFAKDFKTVYIARGKKAAFINGTKISHGIVPAMISEQIIPLYPIFAENGSEWFNAIVLEKEHIDNFVALIEKKNNIETLDYERIRNGDSMFSIIKNANRGIFTLELTETERRIVNSSLRQGFFSWPRSYDLTSISREFGLTKPTILYHIRNAERKVMEALFGS, MGSDKIHHHHHHQGPQCNHAQLPFQQMTPVPYDSTPYSPQDTMPEQCSNPEVEAYIADWEAGKIDFTTIKANDSIAADQRFCKTLDDDGNISEVKDCDRTKSPVGYIWKELSDSPVVIGITDGGKSDHAPHFHGQPECYYVVNGEGQTLADNQFKKLGTGQYFYIPGATIHNTPIMSEKGLGVIYWYPNNAHFDGFKYYWRKDVKNLRVAEEAFDRVDAIRKRDLNLGPYGTNEAFFKK, MGSDKIHHHHHHQTPSPLGEWQYSAGVPLDKLFNPNPQTWQISVGAAATLQPRYDGSNQYRPMAGPTFDARYRDLWFVSTGEGIGVNVLRGPNWRATLSAGYDLGRREADDRGHLTGIGNINPAAVIKLSADYVISHAFPLVLRADVRRSVGGANGWVADLAAYMPLPGSSETFYWFAGPTVTFADSRYMNSWFGVNDAQAARSGHPRYAPSAGVKSFGGGMTLVWFVTKHWFVTADGAIEQLVGSAARSPLTQRSTNAVVDVSINYQF, MGSDKIHHHHHHQVSGDTVKIGFITDLSGLYADIDGQGGVEAIKMAIEDAGGKVLGKPIELVTADHQNKADIAASKAREWMDQQGLDVLIGGTNSGTALAMNKVAAEKKRVYINNGAGTARLTNEECSPYTVHYAYDTVALAKGTGSAVVKQGGKSWFFLTADYAFGHSLESDTAAVVKANGGTVLGSVRHPLSASDFSSFLLQAQASKAQILGLANAGGDTINSIKAAKEFGITKTMKIAGLLMFINDIHSLGLKNTEGLLMTDSWYWDMNDDTRKFANRYFSKMKKMPSSLQAADYSAVSTYLKAVAAAKTDDPDKVMAELKKTKINDFYTKGYIRQDGRGIHDMYLMQVKSPAESKKPWDYLKIVATIPGDQAFTTVAESKCSMMKK, MGSDKIHHHHHHTPLPPVKQPHPATSQQHQEPVRGVWLATVSRLDWPPVTSVNTNSPAIRITQQQEALKGKLDKLKSLGINTVFFQIKPDGTALWPSKILPWSDMMTGHIGEDPGYDPLQFMLDEAHKRGMKVHAWFNPYRVSVNTKSGTVAELNRTLSQNPASVFVLHRDWIRTAGDRFVLDPGIPEARNWITSIVAEVVARYAIDGVQFDDYFYAESPGSVLNDGETFKKYGQGFGSKADWRRHNTQQLIEQVSRTIKQLKPEVEFGVSPAGVWRNRSHDAAGSDTRGAAAYDEAYADTRLWVQQGLLDYIAPQLYWPFARDAARYDVLAKWWADVVKPTSTRLYIGVALYKVGEPSKNEPDWMISGGVPELKKQLDLNESTPHIDGTILFRENYLNQPQTQEAVNYLRNRWNPI, MGSDKIHHHHHHVATYNERLFDGKSFRSKLHYARYLWVNSWIKRWELPSYSMLELGCYDGKTIDFLSNKPATYAGYDANWEGGLDIAKTKWSMHPDYSFHTCEKPADFSADDSMYEVSVCLETLEHIPAADLEAYIVQLSKKTKQYCLVSVPNEKGPVLFFKHIIKSITQEKAQTEAYTLKEFLYGSIGRLDKVARRDCGHKGFDYDALAVLLKKYFTILKTEAIPYPAIPHALGFNVGFILKKN, MGSDKIHHHHHHVDDNALPVEETFKDIDLANNLKDCGKPLLLSDIVKDVEYVKLETQDNILVGDIKQLKRTEKFVFIYSRNQRHVMMFDTSGKFIRKIGHVGQGPGEIANIHCFTVSDSLVFIYPFSRNGSLTVYDMRDNSFVKEFSLKWPVFFSWTIDVMGDCLVYYPGTVYLPDNSKTFISACVANGKGETLMEQIPYLSSGDKEIVQLSSDPSWLYRGRSNVYSFINDTIYGITCDSIFPRYHLSLGKYKLPSGRYDPTHDYGWGDFVLMQSVYETKEFLFLELGTLL, MGSDKIHHHHHHVDKLLYVAMSGAKQNMNSLAVRANNLANANTDGFKSDLEQARSMQAFGEGLPTRVFSMTENPSANFAAGPIKTTGRDLDIAVKGDGWIAVQAVDGGEAYTRSGSLSFDTSGLLRNDRGNPVMGDAGPIVLPLPIEKVEIAQDGTISVRPLGSTAEVIEEVGRIKLVNPGNQNLMRGEDGLFRQLSGVNAPADPNVAVESGAIEGSNVNAVDEMVSLIDLQRQFEMQVKMMKTAEEMDQASSSLMRIS, MGSDKIHHHHHHVDTGNRPSILRMPAQEDFVRFKPGFGTRFLLTVDTEEEFDWSKPLDRTSHGLHHVPRLAKFQQFCEGVGVVPVYLVDFPVASDPRAADILRDAVHAGKAEIGVQLHPWVSPPHDEDVNVHNSFAGNLAPELERAKFRKLRDTIEQAFGVGPLIYRAGRYGVGPATASILSDCAIAIDTSVRSRFDYSSAGGPNFREYPLRPWWIDKRNGLMEMPLTTVFSGLLRQQGQTIYPALWRVPRLRGALARIGMLERIPLTPEGVTLDEAIKGIDMALDDGLEMLVFSFHSPSLCPGHTPYVRDESDLDLFYAWWRGVLTYMQQRNVKPTCVREIMEAAEI, MGSDKIHHHHHHVHLTYENTNEEIIAVKRKPRHQPPHLHNAMEIVCVTKGTLELGVGQELYHMETGDIGVVFPDVIHHYQVFSSEVNEAVFINAPQMIFGRFENVLRNNAPQYPVVKSDVIPDEVYRAVESIIDTGQNDIWVVQAYLQIILARCIPMMKLVEKSKIGSDDIIYRTVSYISANFNKSISLDGMAHDLGVSKFSLSRLFSKTFHSSFNQYVNEARLGYACQRIETTDDTLTEISMDSGFGSLRTFNRVFKEKYRLTPSEYRNKLQI, MGSDKIHHHHHHVKFFVIGDVTVDHLYHLDRLPAPGEEVAPTRATMKPGGAGGTISVTLARLGHSVTLAARVGDDPFAEYALASVRESGVLQAAIQIDPEHLTSTITVMQTPDGQRAMISDGAANRQLDPAKLKKKDIEGADALIVSAYSLTEGPQREYTLKAIETAKKAKKPVPVFIDLGTGAVNKVGTDLIENVIGADYLTLNQHELLALTDTTSISAALAQLGDAGARRVIVKVGRMGSIVWTPTETELVDPIKPEGRVVDSTGAGDTFTAAFAHAVLTGHSLPQAARIGNAAGALAATRVGAQARPITLADLEAALAR, MGSDKIHHHHHHVLIKSIKLTNILSFGEAAETIELRPLNVVIGPNGSGKSNLIAAIELFRALPKDAPAFFRREGGIHDWLWKGGEIPPVATIESVFDEKGPLSGLRYALRFTVVGQHFEIIEERIEEEAAEGAQTPPPYHFKDGRGALRALLANEGEIKAWSFVIPSEIDPTQSILAQRKDPHQYPELTSLGAVLPTMRCYREWTMGPQSPPRQDQKTDLRNDYLDPYGAGNLALVLQRLGNKPALKKRFLEALRLLYEGIDDYGVTIEGGTSQIFFHEGGRFTIPASRLSDGTLRYLCLLAILLDPAPPPLLCIEEPELGLHPDILPTLADLLKEASERTQVIVTTHSDGLVDAMTDRPEAVLIAEKNENGTTLTRLDGETLKPWLAKYRLGELWTRGGIGGTRW, MGSDKIHHHHHHVNYPKVYTSEQACPINLVGETGQAVQISIHAPSQYICANCERILPDWKRQSFLRVVIVLQQSRYQLVKKTTEVESEKERLREKFMRFGCDLAFNLRDRGYLTDLIDPRTGYPLLSHPGAIPHDDTAVVKALLNYPVIKNQCRVLVHPEWGAAVYPSILISEAPPILIEWVTKGIAAMHGWKEISH
